Laboratory results reported in patent US20100167997A1, “METHOD FOR STIMULATION COLLAGEN SYNTHESIS AND/OR KGF EXPRESSION” (ATYR PHARMA, INC., priority 2005, published 2010).

Tests used:
collagen [1] = experiment: RT-PCR analysis of collagen transcript in foreskin fibroblast cells; type: cell-based
Experimental: (§1) In order to measure the collagen transcript RNA induced by the AIMP1, foreskin fibroblast cells (5×10^4 cells/well; obtained from MTT; accession number: MC1232) were cultured in 10% serum-containing DMEM medium on a 6-well plate for 12 hours and then cultured in serum-free medium for about 3 hours. Next, the cultured cells were treated with the AIMP1 (SEQ ID NO: 1) at varying AIMP1 concentrations of 0, 20, 50, 100 and 200 nM for 6 hours (RT-PCR) or 12 hours (Western blot).
The cells treated with the AIMP1 at varying concentrations in Example <1-1> were collected and dissolved in TRIzol (invitrogen). 10% by weight of chloroform was added to the cell lysate, and mixed well. The mixture was centrifuged at 12,000 g for 15 minutes and the supernatant was collected. Ethanol was added to the collected supernatant to a final concentration of 70%. Then, the supernant was centrifuged at 26,000 g for 5 minutes and the precipitant was collected. The precipitant was dried and dissolved in sterilized distilled water, and the total RNA was extracted. 3 μg of the total RNA was used to prepare cDNA. Then, the cDNA was amplified by PCR using collagen-specific primers (SEQ ID NO: 4 and SEQ ID NO: 5). At this time, for use as a control group, the cDNA was subjected to PCR using GADPH-specific primers (SEQ ID NO: 6 and SEQ ID NO: 7). The PCR reaction consisted of: pre-denaturation of the template DNA at 95° C. for 5 min, followed by 25 cycles of 1 min at 95° C., 1 min at 52° C. and 1 min at 72° C., and then a final extension for 5 min at 72° C.
(§2) Foreskin fibroblast cells (5×10^4 cells/well) were cultured in 10% serum-containing DMEM medium on a 6-well plate for 12 hours, and then, cultured in serum-free medium for about 3 hours. Next, the cultured cells were treated with 100 nM of the AIMP1 at various time intervals (0, 2, 4, 6, 12 and 24 hours).
(§3) Foreskin fibroblast cells (5×10^4 cells/well) were cultured in 10% serum-containing DMEM medium on a 6-well plate about 12 hours, and then, cultured in serum-free medium for about 3 hours. Then, the cultured cells were treated with 100 nM of the N-terminal and C-terminal fragments of the AIMP1 prepared in Reference Example 1, at various time intervals of 0, 1, 2, 4, and 6 hours. Then, RT-PCR was performed in the same manner as in Example <1-2> using each of collagen-specific primers (SEQ ID NO: 4 and SEQ ID NO: 5), KGF-specific primers (SEQ ID NO: 8 and SEQ ID NO: 9) and GADPH-specific primers (SEQ ID NO: 6 and SEQ ID NO: 7).
(§4) Foreskin fibroblast cells (5×10^4 cells/well) were cultured in 10% serum-containing DMEM medium on a 6-well plate for 12 hours and then cultured in serum-free medium for about 3 hours. Next, the cultured cells were treated with each of the N-terminal fragments (SEQ ID NOS: 12, 13 and 14) and C-terminal fragment (SEQ ID NO: 15) of AIMP1 prepared in Reference Example 2 at an concentration of 100 nM for 2 hours and 6 hours, respectively. The treated cells were subjected to RT-PCR using collagen-specific primers (SEQ ID NOS: 4 and 5), KGF-specific primers (SEQ ID NOS: 8 and 9) and GADPH-specific primers (SEQ ID NOS: 6 and 7) in the same manner as in Example <1-2>.

collagen [2] = experiment: Western blot analysis of collagen (anti-collagen I antibody) in foreskin fibroblast cells; type: cell-based
Experimental: as §1
The cells treated with the AIMP1 at varying AIMP1 concentrations in Example <1-1> were collected and lysed in a cell lysis buffer (50 mM HEPES, pH 7.5, 150 mM NaCl, 10% glycerol, 5 mM EGTA, 1 mM sodium orthovanadate, 10 mM NaF, 12 mM b-glycerophosphate, 1 mM DTT, 1 mM PMSF, […] aprotinin, and 1% NP40). Lysed cells were centrifuged at 26,000 g for 15 minutes and the cell extract was isolated. 30 μg of the cell extract was separated by 8% SDS-PAGE and immunoblotted with an anti-collagen I antibody (Abcam) according to any conventional method known in the art. As a control group, an anti-tubulin antibody (Sigma) was used.
as §2
Foreskin fibroblast cells (5×10^5 cells/well) were cultured in 10% serum-containing DMEM medium on a 6-well plate for 48 hours and then cultured in serum-free medium for about 3 hours. Next, the cultured cells were treated with each of the AIMP1 (SEQ ID NO: 1) and the AIMP1 N-terminal fragments (SEQ ID NOS: 2 and 12) at a concentration of 200 nM for 12 hours. As a control group, cells without treatment were used.
The cells treated with each of the AIMP1 and its N-terminal fragments and the control cells were collected at the indicated time and subjected to Western blot analysis in the same manner as in Example <1-3>.

collagen [3] = experiment: Collagen immunofluorescent staining of wound site in wild-type and AIMP1-deficient mice; type: in vivo, mouse; conditions: WT and AIMP1-/- mice; 4 μg applied on wound site twice a day until 3 days after wounding; FIG. 3
Source text: By the gene trap method known in the art (Zambrowicz, B. P., et al., Nature 392:608-611, 1998; Kim J Y et al., Proc. Natl. Acad. Sci. USA 99:7912-7916, 2002), a mutation in the AIMP1 gene of a male C57BL6 mouse was induced to prepare a AIMP1 gene deficient homozygous mouse (AIMP1^−/− mouse, Ho) (Park S. G. et al., Am. J. Pathol., in press: 2005). Then, on the back of each of the 8-week-old homozygous mouse and wild-type mouse (AIMP1^+/+ mice, WT), a circular cut-off window with a diameter of 0.5 cm was made with scissors. The wound site was left to stand without dressing. 4 μg of the AIMP1 prepared in Reference Example 1 was dissolved in 5 μl of 20% glycerol-containing PBS and applied on the wound site. The AIMP1 applied twice a day until 3 days after wounding. A control group (AIMP1-untreated group) was treated with 20% glycerol-containing PBS. Then, the tissue of the wound site was isolated using scissors and fixed in 4% paraformaldehyde overnight. The fixed tissue was washed with PBS, incubated in 30% sucrose solution for 4 hours, and then mixed with an OCT (optimal cutting temperature) compound and frozen at −70° C.
6 μm of the frozen section was attached to a silane-coated slide and washed with PBS. Then, the slide was blocked with PBS containing 0.1% tween 20 and 1% non-fat dry milk and allowed to react with an anti-collagen I antibody (Abcam) at 37° C. for 2 hours. […]

KGF = experiment: RT-PCR analysis of KGF expression in foreskin fibroblast cells; type: cell-based; conditions: 100 nM for 2 hours, FIG. 4
Experimental: From foreskin fibroblast cells treated with 100 nM of the AIMP1 for 2 hours, the total RNA was extracted in the same manner as described in Example <1-2>. Then, the extract was amplified by RT-PCR using KGF-specific primers (SEQ ID NO: 8 and SEQ ID NO: 9). The control groups were amplified using cyclin D-specific primers (SEQ ID NO: 10 and SEQ ID NO: 11) and GADPH-specific primers (SEQ ID NO: 6 and SEQ ID NO: 7), respectively. The PCR reaction consisted of: predenaturation of the template DNA at 95° C. for 5 min, followed by 25 cycles of 1 min at 95° C., 1 min at 52° C. and 1 min at 72° C., and then, a final extension for 5 min at 72° C.
as §3, §4

B1: AIMP1: ARS-interacting multi-functional protein 1, a protein consisting of 312 amino acids (SEQ ID NO: 1) (protein, listed as Homo sapiens)
chain: MANNDAVLKRLEQKGAEADQIIEYLKQQVSLLKEKAILQATLREEKKLRVENAKLKKEIEELKQELIQAEIQNGVKQIAFPSGTPLHANSMVSENVIQSTAVTTVSSGTKEQIKGGTGDEKKAKEKIEKKGEKKEKKQQSIAGSADSKPIDVSRLDLRIGCIITARKHPDADSLYVEEVDVGEIAPRTVVSGLVNHVPLEQMQNRMVILLCNLKPAKMRGVLSQAMVMCASSPEKIEILAPPNGSVPGDRITFDAFPGEPDKELNPKKKIWEQIQPDLHTNDECVATYKGVPFEVKGKGVCRAQTMSNSGIK
synthesis of collagen (RT-PCR), varying concentrations (collagen [1]; 0, 20, 50, 100 and 200 nM for 6 hours, FIG. 1 upper): stimulated the synthesis of collagen in fibroblast cells in dose-dependent manners
synthesis of collagen (RT-PCR), various time intervals (collagen [1]; 100 nM, 0, 2, 4, 6, 12 and 24 hours, FIG. 2 upper): stimulated the synthesis of collagen in fibroblast cells in time-dependent manners
synthesis of collagen, protein levels (Western blot), varying concentrations (collagen [2]; 0, 20, 50, 100 and 200 nM for 12 hours, FIG. 1 bottom): stimulated the synthesis of collagen in fibroblast cells in dose-dependent manners
synthesis of collagen, protein levels (Western blot), various time intervals (collagen [2]; 100 nM, 0, 2, 4, 6, 12 and 24 hours, FIG. 2 bottom): stimulated the synthesis of collagen
synthesis of collagen, protein levels (Western blot), compared with cells without treatment (collagen [2]; 200 nM for 12 hours, FIG. 7): more stimulated
amount of collagen at wound site (immunofluorescence) (collagen [3]): further increased
expression of KGF (RT-PCR) (KGF): increased
